A word on the EC50: it is the concentration at which the effect is half-maximal. A high value points to weaker potency. One may read the Kd as the equilibrium constant for the complex coming apart. Read a high Kd as weaker binding.

Test [1] addresses T1, GST-PfLDH (UniProt Q27743 2-316). Nature of the test: ELISA. On the technique in general: ELISA stands for enzyme-linked immunosorbent assay.
Test [2] concerns the target PfLDH protein (UniProt Q27743 2-316).
Test [3] deals with GST-PvLDH (UniProt P84793 1-313). Nature of the test: sandwich ELISA.
Test [4] concerns the target T1, GST-PfLDH. Nature of the test: sandwich ELISA.

Ends that are not written are not given here.

B1: RCM cyclized version of the HWSAN (SEQ ID NO:11) peptide (peptide)
peptide: HWSAN
modifications: staple (positions not given here); also: RCM ring between olefin-bearing non-natural residues, places not given here, biotinylated
On to B1, for which, in test [1], the concentration for a half-maximal effect (EC50) was 0.00257 µM.

B2: binary ligand hevwh-YLGHK (peptide)
peptide 1: HEVWH
peptide 2: YLGHK
modifications: not fully specified (bridges)
The molecule B2 registered a Kd in test [2] of approximately 0.01 µM. Moreover, the results for the concentration for a half-maximal effect (EC50) in test [3] and in test [4] were 0.012 µM and 0.0151 µM, respectively.

These data come from US20220380409A1 (published 2022).
